Laboratory results as given in the supplement of paper PMC9732359.
± gives the uncertainty stated by the source.

Assay: protein stability index of a GFP-peptide fusion (yeast GPS) (PSI 1-4); higher = more stable; sorted into four equal gates, so the index is relative within each strain
Method in brief: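 The protein stability index of a peptide was calculated by multiplying its read frequency in each gate by that gate's number and adding the products. The peptides were tiled 17-residue stretches of yeast proteins, fused downstream of GFP on a Cherry-expressing plasmid and carried in yeast as a pooled library. Mid-log cultures in leucine-free medium were sorted into four equal gates by GFP/Cherry ratio, and each gate's plasmids were PCR-amplified and Illumina-sequenced.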

Row | Sequence | protein stability index (doa10∆) | protein stability index (pdr5∆) | protein stability index (san1∆) | protein stability index (ubr1∆)
1 | QPTPRSASNTAKSTPNT [GAL11] | 2.75 ± 0.061 | 2.93 ± 0.05 | 2.75 ± 0.058 | 2.55 ± 0.048
2 | MKTKTINAQGEEIVVVA [PRP8] | 1.72 ± 0.089 | 1.92 ± 0.12 | 1.36 ± 0.19 | 1.52 ± 0.06
3 | LRIVTHLAICLDIINPG [YDL116W/NUP84] | 1.61 ± 0.08 | 1.38 ± 0.083 | 1.57 ± 0.095 | 1.82 ± 0.067
4 | TYDENDDFFKELAKEAK [ESC2] | 3.01 ± 0.11 | 2.83 ± 0.08 | 2.65 ± 0.073 | 3.08 ± 0.075
5 | TNGKPDMAILERYYELA [ARP7] | 3.23 ± 0.088 | 3.1 ± 0.097 | 3.01 ± 0.075 | 3.19 ± 0.06
6 | ICQIISSTITGDVVLAA [RPL5] | 2.84 ± 0.063 | 1.89 ± 0.058 | 2.31 ± 0.069 | 3.06 ± 0.099
7 | RDVRDQAAGGLSIRLTN [RPN8] | 2.89 ± 0.087 | 2.85 ± 0.095 | 2.89 ± 0.097 | 2.6 ± 0.071
8 | TAVLSTTARAKARAKKT [RPN2] | 3.31 ± 0.11 | 3.17 ± 0.077 | 3.15 ± 0.075 | 3.19 ± 0.072
9 | SHPEKRMIPPRMVRSIM [SSN3] | 3.25 ± 0.1 | 3.01 ± 0.075 | 2.33 ± 0.065 | 3.19 ± 0.066
10 | FEGVTHRWGTKKLPRKT [RPL3] | 3.31 ± 0.11 | 2.98 ± 0.13 | 3.11 ± 0.082 | 3.34 ± 0.061
11 | NQNTLKEISARRYKLLT [POP1] | 2.13 ± 0.049 | 2.35 ± 0.045 | 2.1 ± 0.067 | 2.65 ± 0.045
12 | VPVIESAGFETDLRLST [SNU114] | 3.14 ± 0.21 | 3.12 ± 0.23 |  | 3.17 ± 0.14
13 | PAFKPTEKKFTKEQYAA [RPL5] | 2.93 ± 0.089 | 3.12 ± 0.083 | 2.79 ± 0.067 | 3.04 ± 0.1
14 | RNEDARRNLRYGDRMKL [RPO31] | 3.37 ± 0.096 | 3.38 ± 0.084 | 3.21 ± 0.08 | 3.38 ± 0.065
15 | SKFNNADDVFTGTGLQD [RPC31] | 3.35 ± 0.1 | 3.38 ± 0.091 | 3.12 ± 0.056 | 3.17 ± 0.066
16 | CFSINDDPVPTPPAIEH [SSN2] | 2.42 ± 0.25 | 2.1 ± 0.26 |  | 
17 | IAYGASQLLLERLMISS [RET1] | 1.75 ± 0.092 | 1.94 ± 0.073 | 2 ± 0.16 | 1.39 ± 0.069
18 | KQQEQLEQQKQPTGLLK [YMR153W/NUP53] | 3.35 ± 0.13 | 3.12 ± 0.14 | 2.97 ± 0.069 | 3.15 ± 0.065
19 | IAPRRKRLADGLSVTQK [DIS3] | 3.38 ± 0.088 | 3.3 ± 0.074 | 3.16 ± 0.068 | 3.1 ± 0.061
20 | ELLSSLEGKGSLEEIIA [RPP2B] | 2.27 ± 0.08 | 2.24 ± 0.061 | 2.63 ± 0.052 | 1.92 ± 0.064
21 | NIVHNFKERQMMVSYPK [AAR2] | 3.04 ± 0.13 | 2.33 ± 0.1 | 1.9 ± 0.15 | 2.19 ± 0.18
22 | PLKYAPHLPFSKSENPV [SWI3] | 2.81 ± 0.076 | 2.95 ± 0.078 | 2.66 ± 0.091 | 2.93 ± 0.074
23 | VSTETFEQPSQREEAKK [RPL27A] | 2.9 ± 0.061 | 2.73 ± 0.07 | 2.73 ± 0.054 | 3.1 ± 0.067
24 | FEGNALIRRLVRVGVLS [RPS9A] | 2.44 ± 0.1 | 2.52 ± 0.18 |  | 1.15 ± 0.17
25 | FIERNFTPQEIEYCSAQ [FAS2] |  | 3.54 ± 0.26 | 2.72 ± 0.26 | 2.73 ± 0.22
26 | LWDSKELEQLVEFNRKV [RPN3] | 2.97 ± 0.1 | 2.62 ± 0.093 | 3.2 ± 0.068 | 2.81 ± 0.084
